Like-named read-outs stand apart in the source and are kept apart here.
Experiments:
Assay in all cases: cell-based or functional assay
[1] = target: receptor of ecotropic murine leukaemia virus Rec1 (murine) (UniProt Q09143)
[2] = target: receptor of ecotropic murine leukaemia virus Rec1 (murine) (UniProt Q09143); remark: listed apart in the source
[3] = target: receptor of ecotropic murine leukaemia virus Rec1 (murine) (UniProt Q09143); remark: listed apart in the source

Chain of envelope protein of ecotropic Friend murine leukaemia virus molecular clone PVC-211 (P26803 35-676 limits assumed): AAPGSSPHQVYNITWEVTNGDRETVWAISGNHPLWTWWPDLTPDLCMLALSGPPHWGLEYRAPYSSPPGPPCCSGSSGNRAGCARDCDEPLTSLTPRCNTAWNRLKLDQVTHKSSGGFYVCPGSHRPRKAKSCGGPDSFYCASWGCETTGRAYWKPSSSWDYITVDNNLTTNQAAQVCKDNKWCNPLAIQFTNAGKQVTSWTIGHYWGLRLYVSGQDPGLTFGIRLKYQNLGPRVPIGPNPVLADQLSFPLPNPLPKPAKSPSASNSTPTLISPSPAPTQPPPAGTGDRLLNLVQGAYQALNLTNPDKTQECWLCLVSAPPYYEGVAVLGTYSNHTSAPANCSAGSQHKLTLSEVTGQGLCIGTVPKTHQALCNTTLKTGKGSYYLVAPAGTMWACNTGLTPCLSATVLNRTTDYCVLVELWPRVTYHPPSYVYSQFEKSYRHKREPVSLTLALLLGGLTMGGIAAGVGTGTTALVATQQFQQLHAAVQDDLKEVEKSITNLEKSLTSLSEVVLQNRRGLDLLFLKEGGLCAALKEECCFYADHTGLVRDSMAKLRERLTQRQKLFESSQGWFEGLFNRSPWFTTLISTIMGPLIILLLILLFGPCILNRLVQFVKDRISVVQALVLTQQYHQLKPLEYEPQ
Chain of wild type envelope of ecotropic Moloney murine leukaemia virus (P03385 34-665 limits assumed): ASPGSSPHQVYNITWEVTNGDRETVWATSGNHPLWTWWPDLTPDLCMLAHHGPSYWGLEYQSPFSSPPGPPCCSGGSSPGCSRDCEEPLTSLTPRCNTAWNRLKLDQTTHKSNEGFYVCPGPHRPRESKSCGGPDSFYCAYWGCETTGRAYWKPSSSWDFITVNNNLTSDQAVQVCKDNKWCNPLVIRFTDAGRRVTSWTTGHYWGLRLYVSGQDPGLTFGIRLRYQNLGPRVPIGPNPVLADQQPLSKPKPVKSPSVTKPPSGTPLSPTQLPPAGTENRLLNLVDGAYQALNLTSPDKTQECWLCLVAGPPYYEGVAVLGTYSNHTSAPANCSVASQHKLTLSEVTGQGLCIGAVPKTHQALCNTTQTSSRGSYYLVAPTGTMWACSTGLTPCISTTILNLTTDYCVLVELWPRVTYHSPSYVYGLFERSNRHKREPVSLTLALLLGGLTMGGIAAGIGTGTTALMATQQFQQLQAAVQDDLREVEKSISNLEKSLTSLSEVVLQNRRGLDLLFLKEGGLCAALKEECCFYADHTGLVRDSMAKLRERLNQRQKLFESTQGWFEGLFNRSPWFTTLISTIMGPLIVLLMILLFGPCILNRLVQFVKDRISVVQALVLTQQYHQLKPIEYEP
Chain of receptor of ecotropic murine leukaemia virus Rec1 (murine) (Q09143 whole entry): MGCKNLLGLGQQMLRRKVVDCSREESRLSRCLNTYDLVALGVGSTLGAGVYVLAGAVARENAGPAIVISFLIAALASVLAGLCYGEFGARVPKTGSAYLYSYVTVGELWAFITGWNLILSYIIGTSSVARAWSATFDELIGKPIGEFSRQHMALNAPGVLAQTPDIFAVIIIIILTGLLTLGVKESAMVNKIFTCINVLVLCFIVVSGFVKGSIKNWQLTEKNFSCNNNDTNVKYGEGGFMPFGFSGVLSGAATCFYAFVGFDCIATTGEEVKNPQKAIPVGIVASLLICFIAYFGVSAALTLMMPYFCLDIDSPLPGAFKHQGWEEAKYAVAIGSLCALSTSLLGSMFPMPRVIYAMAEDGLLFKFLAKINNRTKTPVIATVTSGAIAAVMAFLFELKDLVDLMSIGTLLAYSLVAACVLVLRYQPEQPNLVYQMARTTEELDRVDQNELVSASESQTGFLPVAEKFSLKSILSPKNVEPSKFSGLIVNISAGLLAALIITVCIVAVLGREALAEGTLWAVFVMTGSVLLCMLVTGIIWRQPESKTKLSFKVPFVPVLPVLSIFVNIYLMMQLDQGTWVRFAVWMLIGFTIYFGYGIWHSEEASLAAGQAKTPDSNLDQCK

wild type envelope of ecotropic Moloney murine leukaemia virus (from UniProt P03385 34-665)
transduction efficiency (% GFP positive cells) in CHO-S Rec1-I-puro cells [1]: 0.56%
transduction efficiency (% GFP positive cells) in CHO T-REx Rec1-I-neo cells [2]: 9.95%
transduction efficiency (% GFP positive cells) in CHO-K1 Rec1-I-neo cells [2]: 14.7%
transduction efficiency (% GFP positive cells) in CHO-S Rec1-I-puro cells [2]: 12.1%
fold gene transfer efficiency, CHO-S Rec1-I-puro cells against parental CHO-S cells [3]: 3 fold
fold gene transfer, CHO-S Rec1-I-puro cells against CHO-S cells [3]: 3.7 fold
gene transfer efficiency (% GFP positive cells) in CHO-S Rec1-I-puro cells [3]: 1.14%
transduction efficiency (% GFP positive cells) in BHK Rec1-I-puro cells [3]: 4.72%
transduction efficiency (% GFP positive cells) in CHO-S Rec1-I-puro cells [3]: 0.55%
transduction efficiency (% GFP positive cells) in HT1080 Rec1-I-neo cells [3]: 0.21%

envelope protein of ecotropic Friend murine leukaemia virus molecular clone PVC-211 (from UniProt P26803 35-676)
transduction efficiency (% GFP positive cells) in CHO-S Rec1-I-puro cells [1]: 19%
transduction efficiency (% GFP positive cells) in CHO T-REx Rec1-I-neo cells [2]: 71.1%
transduction efficiency (% GFP positive cells) in CHO-K1 Rec1-I-neo cells [2]: 48.3%
transduction efficiency (% GFP positive cells) in CHO-S Rec1-I-puro cells [2]: 73%
fold gene transfer efficiency, CHO-S Rec1-I-puro cells against CHO-S cells [3]: 13 fold
fold transduction efficiency in CHO-S Rec1-I-puro cells, MLV (PVC-211 Env) against MLV (wtEnv) vector particles [3]: > 33 fold
puromycin-resistant cell colonies counted in ten fields, CHO-S Rec1-I-neo cells transduced once [3]: 41 colonies
puromycin-resistant cell colonies counted in ten fields, CHO-S Rec1-I-neo cells transduced three times [3]: 230 colonies
transduction efficiency (% GFP positive cells) in BHK Rec1-I-puro cells [3]: 31%
transduction efficiency (% GFP positive cells) in CHO-S Rec1-I-puro cells [3]: 15.5%
transduction efficiency (% GFP positive cells) in HT1080 Rec1-I-neo cells [3]: 16%

From patent US20140227786A1
